From the supplement of paper PMC10724198 come the findings set out here.

± gives the standard deviation of the averaged measurements.
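Note: PSI is a weighted mean of sequencing reads over stability bins, variants kept only with over 10 reads, mCherry proximal and sfGFP distal, peptide attached via GGGS linker.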

The test system of this series is Saccharomyces cerevisiae. The series is described as follows: protein stability index of tFT-peptide fusion (C-terminal peptide) (PSI (0-1 scale)); higher = more stable (slower turnover). To be noted: genetic background: wild type; temperature: 30 C. How it is done:
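Multiplexed protein stability (MPS) profiling in S. cerevisiae. Random 12-aa peptides (tFT-X12 library) are fused to the C-terminus of a sfGFP-mCherry tandem fluorescent timer, after mCherry and a GGGS linker. Cells are FACS-sorted into 8 mCherry/sfGFP bins and deep-sequenced. The protein stability index (PSI) is the read-weighted bin average, scaled from 0 (unstable) to 1 (stable). Only peptides with >10 reads are reported; cells were grown at 30 °C in SC-His with glucose.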
DPGGLSNYSRAS had a protein stability index of 0.67 ± 0.036.
On to DPHRTRPRITLP, for which the protein stability index is 0.715 ± 0.044.
DPISNVDVTKIR returned a protein stability index of 0.6571 ± 0.0044.
DPPLRPSSLPPP came in with a protein stability index of 0.653 ± 0.0084.
On to DPPSVPSPLPTS, for which the protein stability index was 0.689 ± 0.016.
DQDAPNRPVDSS returned a protein stability index of 0.695 ± 0.018.
To DQKSGCPVRIYR belongs 0.623 ± 0.029.
To DQMVILSHYSVR belongs 0.683 ± 0.038; to DQVGWVAGVDAR, 0.707 ± 0.048; to DRGGDVGRCAGF, 0.677 ± 0.011.
The sequence DRLPRHLPSLLP returned a protein stability index of 0.715 ± 0.037.
To DRMYDELFTKCC belongs 0.619 ± 0.031; to DRNKRDERTSEE, 0.744 ± 0.026; to DRPRPLPTPLPP, 0.5905 ± 0.0021.
Regarding DRQRVGYRGPPH, the protein stability index was found to be 0.639 ± 0.096.
Take DRVFLVDMGVMW: the protein stability index was 0.6632 ± 0.0014.
For DRYSVGCGVSEG the value was 0.7038 ± 0.002.
For DSAWSWTLLFVG the value was 0.63 ± 0.026; for DSIVHSFYIPLL, 0.666 ± 0.048; for DSKRIQSRLYYS, 0.66 ± 0.027.
Turning to DSRSPSTTLIPL, the protein stability index was 0.6623 ± 0.0018.
Sequence DSSPIESAVAPS returned a protein stability index of 0.716 ± 0.023.
To DSTMWDALSVCV belongs 0.621 ± 0.026.
Take DSVFTKALEPAW: the protein stability index was 0.722 ± 0.04.
Sequence DTDHSSNCELPG displayed a protein stability index of 0.696 ± 0.083.
With DTGGGPQTSRWD, the protein stability index was determined as 0.715 ± 0.17.
Turning to DTSGNQLQDPDI, the protein stability index is 0.706 ± 0.029.
For DVAYSSSNAVHR the value was 0.669 ± 0.045; for DVESGRVDLGEE, 0.787 ± 0.15.
With DVFLFPGVYFRM, the protein stability index was 0.594 ± 0.012.
To DVGFGWGCGVGG belongs 0.736 ± 0.014; to DVGFGWGGGVGG, 0.76 ± 0.014; to DVGSPFSISVQS, 0.647 ± 0.045.
As for DVLLRGAVQPIC, the protein stability index came out at 0.659 ± 0.0098.
In turn, DVRNVCNISDEV registered a protein stability index of 0.654 ± 0.022.
For DVVGGCEKWWER the value was 0.734 ± 0.049; for DVVLVSPCGQMW, 0.725 ± 0.21; for DWSGTISVSSLR, 0.672 ± 0.1.
For DWTNLTVITGDT the value was 0.674 ± 0.035.
In the case of DYCARQRLLDQF, the protein stability index stood at 0.685 ± 0.11.
For DYPQWWEEQHVP, the protein stability index was found to be 0.797 ± 0.019.
As to DYSRCGCRLSGK, the protein stability index is 0.677 ± 0.03.
Regarding EAGESKNVDSLL, the protein stability index came to 0.638 ± 0.0081.
Sequence EAIQDCERGPCW returned a protein stability index of 0.698 ± 0.0081.
Turning to EAKKNNIVEKQR, the protein stability index came out at 0.681 ± 0.015.
For EAPRTPPSVPVN, the protein stability index came out at 0.7866 ± 0.0051.
To EAVRASSPAGLP belongs 0.7017 ± 0.0023.
To ECCDSGLCWLTF belongs 0.754 ± 0.034.
With ECGRWLGRGVRG, the protein stability index was 0.735 ± 0.045.
To EDFKTKQKKKKE belongs 0.709 ± 0.077; to EDKVRGQGSRHN, 0.722 ± 0.011.
For EDRYIGITRYKD the value was 0.682 ± 0.11.
For EDSKLVSRLSRS the value was 0.712 ± 0.082; for EDTYSGKGSRGV, 0.774 ± 0.047; for EEECSTPWGIRG, 0.635 ± 0.048.
Consider EELTVLCGLLKT, for which the protein stability index turned out to be 0.64 ± 0.04.
The sequence EEQKKIRKRPEK yielded a protein stability index of 0.69686 ± 0.00066.
For EERGGDNVTVCG the value was 0.745 ± 0.031; for EERLGIIVRSDR, 0.635 ± 0.079; for EFAYQSRYKVGR, 0.694 ± 0.058.
In the case of EFFSDLLEMIRL, the protein stability index worked out at 0.725 ± 0.033.
EFSILLPLPFFR yielded a protein stability index of 0.656 ± 0.076.
For the sequence EGDGLGGGGQGG, the protein stability index was found to be 0.685 ± 0.0069.
EGDQSRMTQPRG registered a protein stability index of 0.647 ± 0.034.
